Each block holds one molecule with its values, some of them ahead of it.
Key:
[1] = biological target: human Bcl-XL-GST fusion protein (human) [GST: P08515]; test: purified labeled free peptide on immobilized Bcl-XL-GST
[2] = biological target: T1, human Bcl-XL protein produced as a GST fusion (Homo sapiens, UniProt Q07817); test: Binding of mRNA display constructs to Bcl-XL-GST fusion protein immobilized on glutathione Sepharose beads (scintillation counting); conditions: BH3 domain or control peptides as individual mRNA display constructs, 1 hr 4° C.
T1 construct: made in house; host or cells: E. coli BL21 (DE3) pLysS
Experimental: Detection of a polypeptide binding to a Bcl-XL-glutathione S-transferase (GST) fusion protein was carried out as follows. Twenty microliters of glutathione Sepharose 4B slurry (AP Biotech) was aliquoted to a microcentrifuge tube and washed with PBS. The Bcl-XL-GST fusion protein (60 μg), prepared as describe above, was added and allowed to bind to the Sepharose beads for 1 hr at 4° C. The beads were then re-washed in selection buffer (50 mM Tris-HCL pH 7.5, 150 mM KCl, 0.05% Triton X-100, 0.5 mg/ml BSA, and 0.1 mg/ml salmon sperm DNA). […] The extent of binding between the Bcl-XL-GST fusion protein and the mRNA display constructs or free peptides was determined by scintillation counting each fraction, including the recovered beads.
Members of the Bcl-2 family of apoptotic proteins function via homo- and heterodimerization, occurring primarily through the binding of a single α-helix designated the BH3 domain (Bcl-2 Homology domain 3) in a corresponding pocket produced by three α-helices in the interacting partner (Diaz et al., J. Biol. Chem. 272:11350-11355, 1997; and Sattler et al., Science 275:983-986, 1997). […] The amount of peptide bound to the beads was determined by scintillation counting and graphed as the percent of input counts bound (FIG. 2B).

[3] = biological target: T2, Bcl-XL-GST fusion protein (Homo sapiens, UniProt Q07817); test: Free purified polypeptide binding to Bcl-XL-GST fusion protein (additional selection, FIG. 9); conditions: purified free polypeptides
T2 construct: made in house; host or cells: E. coli BL21 (DE3) pLysS
Experimental: (§1) Detection of a polypeptide binding to a Bcl-XL-glutathione S-transferase (GST) fusion protein was carried out as follows. Twenty microliters of glutathione Sepharose 4B slurry (AP Biotech) was aliquoted to a microcentrifuge tube and washed with PBS. The Bcl-XL-GST fusion protein (60 μg), prepared as describe above, was added and allowed to bind to the Sepharose beads for 1 hr at 4° C. The beads were then re-washed in selection buffer (50 mM Tris-HCL pH 7.5, 150 mM KCl, 0.05% Triton X-100, 0.5 mg/ml BSA, and 0.1 mg/ml salmon sperm DNA). The Bcl-XL-GST beads were resuspended in 100 μl of selection buffer (approximately 11.5 μM Bcl-XL) and ^35S-labeled mRNA display construct or free peptide was added (approximately 10-60 nM) and incubated on a rotator for 1 hr at 4° C. The reaction was then transferred to a microcentrifuge column (BioRad) and unbound mRNA display constructs or free peptides were removed by a 10 sec spin at 1,000 rpm. The Sepharose beads were then washed three times with 500 μl of selection buffer. The extent of binding between the Bcl-XL-GST fusion protein and the mRNA display constructs or free peptides was determined by scintillation counting each fraction, including the recovered beads. […]

[4] = biological target: T3, human Bcl-XL-GST fusion protein (human, UniProt P08515 1-218 = GST; Q07817 1-211); test: 35S-labeled mRNA display construct on Bcl-XL-GST glutathione Sepharose beads, scintillation counting
T3 construct: Made in E. coli, immobilized on glutathione Sepharose beads; whole entry named; also called Bcl-XL-glutathione S-transferase (GST) fusion protein; GST-BCL-XL
Experimental: as §1, with “³⁵S-labeled” for “^35S-labeled”

[5] = biological target: T3, human Bcl-XL-GST fusion protein; test: labeled free peptide on Bcl-XL-GST beads, immobilized target varied from 11 nM to 28 µM
Experimental: Detection of a polypeptide binding to a Bcl-XL-glutathione S-transferase (GST) fusion protein was carried out as follows. Twenty microliters of glutathione Sepharose 4B slurry (AP Biotech) was aliquoted to a microcentrifuge tube and washed with PBS. The Bcl-XL-GST fusion protein (60 μg), prepared as describe above, was added and allowed to bind to the Sepharose beads for 1 hr at 4° C. The beads were then re-washed in selection buffer (50 mM Tris-HCL pH 7.5, 150 mM KCl, 0.05% Triton X-100, 0.5 mg/ml BSA, and 0.1 mg/ml salmon sperm DNA). The Bcl-XL-GST beads were resuspended in 100 μl of selection buffer (approximately 11.5 μM Bcl-XL) and ³⁵S-labeled mRNA display construct or free peptide was added (approximately 10-60 nM) and incubated on a rotator for 1 hr at 4° C. […] The extent of binding between the Bcl-XL-GST fusion protein and the mRNA display constructs or free peptides was determined by scintillation counting each fraction, including the recovered beads.
Purified radioactively labeled protein from the individual clones was incubated with immobilized Bcl-XL-GST for one hour and, after washing, the amount bound was determined by scintillation counting. […] The amount of peptide bound to Bcl-XL was determined by scintillation counting and normalized to that bound at the highest concentration. […]

[6] = biological target: T3, human Bcl-XL-GST fusion protein; test: labeled free peptide on immobilized Bcl-XL-GST with Bak BH3 competitor
Experimental: Only three of the selected proteins (Bim, Bak, and Bax) were previously known to contain a BH3 domain. In order to determine if the other proteins bound to the BH3 domain binding site on Bcl-XL, a competition assay was performed. The Bak BH3 domain peptide used as a positive control was prepared by chemical synthesis and used to compete with individual Bcl-XL-binding polypeptides in a Bcl-XL binding assay. […] At a fixed concentration of immobilized Bcl-XL, the Bak BH3 domain-containing peptide […] (SEQ ID NO: 152), also containing a FLAG-M2 epitope, was added at the indicated concentration along with a trace amount of a selected Talin fragment. After binding for 1 hour, the unbound material was removed and the bound protein was quantitated. The bound protein was assayed by scintillation counting, normalized to that bound in the absence of competitor, and plotted versus competitor concentration.
A competition assay was performed for each of the selected Bcl-XL-binding polypeptides using 20 μM Bak BH3 competitor based on the titration shown in FIG. 6.

T3 sequence (P08515 1-218, tags or fused parts left off): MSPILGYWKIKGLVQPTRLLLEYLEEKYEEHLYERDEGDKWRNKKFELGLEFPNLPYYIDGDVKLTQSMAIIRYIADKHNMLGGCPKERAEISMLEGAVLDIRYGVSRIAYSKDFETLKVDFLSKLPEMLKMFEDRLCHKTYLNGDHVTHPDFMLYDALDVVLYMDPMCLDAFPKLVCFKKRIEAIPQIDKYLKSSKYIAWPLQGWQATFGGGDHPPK
human Bcl-XL-GST fusion protein (human) [GST: P08515], sequence (P08515 1-218, tags or fused parts left off): as above
T2 sequence (Q07817 1-211): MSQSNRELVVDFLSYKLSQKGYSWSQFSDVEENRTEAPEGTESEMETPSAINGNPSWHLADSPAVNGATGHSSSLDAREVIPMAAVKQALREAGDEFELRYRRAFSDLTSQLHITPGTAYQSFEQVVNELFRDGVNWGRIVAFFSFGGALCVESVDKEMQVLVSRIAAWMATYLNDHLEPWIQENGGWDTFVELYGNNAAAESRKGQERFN
T1 sequence (Q07817 1-211): as above

- percent of input counts bound to Bcl-XL-GST [2]: no binding was observed
Molecule: Bcl-2: BH3 domain of Bcl-2 prepared as mRNA display construct (FIG. 2A) (PVVHLTLRQAGDDFSR)

- Binding to the Bcl-XL-GST fusion protein [3]: 0.65%
Molecule: SRP9: selected SRP9 polypeptide of the additional selection, purified free polypeptide (IGEEFSRAAEKLYLAV)

- binding result [6]: binds
B3: clone t53 (peptide)
chain: LDPVKDVLILSALRRMLWAADDFLEDLPFEQIG
notes: mRNA display clone from a known polypeptide

Further lines, the molecule ahead of its results:

Molecule: Bax (clone AttB-Hc-7) (from UniProt Q07812 40-95) (peptide)
- percent bound [1]: 32%

B1: BH3 domain of Bcl-2, mRNA display construct (peptide, UniProt P10415 91-106, looked up)
peptide: PVVHLTLRQAGDDFSR
notes: domain: BH3 domain; Peptide fused to its mRNA through puromycin; also called BH3 helix from Bcl-2
- binding result [4]: no binding

B2: Bak BH3 domain-containing peptide MGQVGRQLAIIGDDINRDYKDDDDKASA (peptide)
peptide: MGQVGRQLAIIGDDINRDYKDDDDKASA
notes: Chemically synthesized free peptide; also called selected Bak fragment
- binding result [5]: binds
